The target in this experiment is human APJ receptor (human) (UniProt P35414). Nature of the experiment: cell-based or functional assay.
Chain of human APJ receptor (human) (P35414 whole entry): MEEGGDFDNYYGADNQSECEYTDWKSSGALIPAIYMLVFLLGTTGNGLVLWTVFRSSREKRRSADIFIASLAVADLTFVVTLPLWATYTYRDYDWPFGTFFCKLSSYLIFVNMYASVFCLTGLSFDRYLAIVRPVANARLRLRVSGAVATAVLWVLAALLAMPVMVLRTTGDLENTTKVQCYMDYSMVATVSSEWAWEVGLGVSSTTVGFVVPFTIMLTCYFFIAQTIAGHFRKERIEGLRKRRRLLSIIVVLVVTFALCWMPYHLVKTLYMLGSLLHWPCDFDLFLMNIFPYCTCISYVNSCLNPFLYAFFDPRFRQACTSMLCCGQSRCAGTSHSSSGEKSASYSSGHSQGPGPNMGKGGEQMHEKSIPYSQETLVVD
“Example 1: pE-R-P-R-C*-S-H-K-G-P-Nle-C*-F-OH (peptide)”: the hAPJ Ca2+ Flux EC50 was determined as 0.74 nM. For the substance “Example 2: pE-R-P-R-hC*-S-H-K-G-P-(D-Nle)-C*-y-OH (peptide)”, the hAPJ Ca2+ Flux EC50 was determined as 154 nM. For the substance “Example 3: pE-R-P-R-L-S-C*-K-G-P-Nle-C*-F-OH (peptide)”, the hAPJ Ca2+ Flux EC50 came out at 128 nM. “Example 4: pE-R-P-R-L-S-C*-K-G-P-Nle-(D-hC)*-F-OH (peptide)” came in with a hAPJ Ca2+ Flux EC50 of 406 nM.

Substance “Example 5: pE-R-P-R-L-S-c*-K-G-P-Nle-(D-hC)*-F-OH (peptide)” returned a hAPJ Ca2+ Flux EC50 of 981 nM. “Example 6: pE-R-P-R-L-S-hC*-K-G-P-Nle-(D-hC)*-F-OH (peptide)” registered a hAPJ Ca2+ Flux EC50 of 92.8 nM. On to “Example 7: pE-R-P-R-L-S-(D-hC)*-K-G-P-Nle-(D-hC)*-F-OH (peptide)”, for which the hAPJ Ca2+ Flux EC50 stood at 781 nM. Regarding “Example 8: pE-R-P-R-L-S-(D-hC)*-K-G-P-Nle-C*-F-OH (peptide)”, the hAPJ Ca2+ Flux EC50 is 613 nM. In turn, “Example 9: pE-R-P-R-L-S-(D-hC)*-K-G-P-Nle-hC*-F-OH (peptide)” had a hAPJ Ca2+ Flux EC50 of 1030 nM. “Example 10: pE-R-P-R-L-S-(D-hC)*-K-G-P-Nle-C*-OH (peptide)”: the hAPJ Ca2+ Flux EC50 stood at 976 nM. Then “Example 11: pE-R-P-R-L-S-C*-K-G-P-Nle-c*-F-OH (peptide)”, with 113 nM; and “Example 12: pE-R-P-R-L-S-C*-K-G-P-Nle-hC*-F-OH (peptide)”, with 81.7 nM.

“Example 13: pE-R-P-R-L-S-hC*-K-G-P-Nle-hC*-F-OH (peptide)” displayed a hAPJ Ca2+ Flux EC50 of 760 nM. Then “Example 14: pE-R-P-R-L-S-H-K-C*-P-Nle-C*-F-OH (peptide)”, with 0.81 nM; and “Example 15: pE-R-P-R-L-S-Aib-K-C*-P-Nle-C*-NH(Phenethyl) (peptide)”, with 4 nM.

“Example 16: pE-R-P-R-L-S-a-K-C*-P-Nle-C*-f-OH (peptide)”: the hAPJ Ca2+ Flux EC50 was found to be 33.2 nM. For “Example 17: pE-R-P-R-L-a-H-K-C*-P-Nle-C*-f-OH (peptide)”, the hAPJ Ca2+ Flux EC50 came to 1.9 nM. Consider “Example 18: Isonipecotoyl-R-P-R-L-a-H-K-C*-P-Nle-C*-f-OH (peptide)”, for which the hAPJ Ca2+ Flux EC50 was 2.3 nM.

“Example 19: pE-R-P-R-L-a-Aib-K-C*-P-Nle-C*-f-OH (peptide)” yielded a hAPJ Ca2+ Flux EC50 of 72.3 nM. In the case of “Example 20: pE-R-P-R-L-S-Aib-K-C*-P-Nle-C*-f-OH (peptide)”, the hAPJ Ca2+ Flux EC50 was 6.1 nM.

In the case of “Example 21: pE-R-P-R-L-s-H-K-C*-P-Nle-C*-f-OH (peptide)”, the hAPJ Ca2+ Flux EC50 came out at 9.7 nM.

The values are drawn from patent publication US20160145309A1.
